Values of other authors as cited in article PMC10035860.

Biological target: growth hormone receptor (Homo sapiens) (UniProt P10912)
Chain of UniProt P10912 (P10912 19-638): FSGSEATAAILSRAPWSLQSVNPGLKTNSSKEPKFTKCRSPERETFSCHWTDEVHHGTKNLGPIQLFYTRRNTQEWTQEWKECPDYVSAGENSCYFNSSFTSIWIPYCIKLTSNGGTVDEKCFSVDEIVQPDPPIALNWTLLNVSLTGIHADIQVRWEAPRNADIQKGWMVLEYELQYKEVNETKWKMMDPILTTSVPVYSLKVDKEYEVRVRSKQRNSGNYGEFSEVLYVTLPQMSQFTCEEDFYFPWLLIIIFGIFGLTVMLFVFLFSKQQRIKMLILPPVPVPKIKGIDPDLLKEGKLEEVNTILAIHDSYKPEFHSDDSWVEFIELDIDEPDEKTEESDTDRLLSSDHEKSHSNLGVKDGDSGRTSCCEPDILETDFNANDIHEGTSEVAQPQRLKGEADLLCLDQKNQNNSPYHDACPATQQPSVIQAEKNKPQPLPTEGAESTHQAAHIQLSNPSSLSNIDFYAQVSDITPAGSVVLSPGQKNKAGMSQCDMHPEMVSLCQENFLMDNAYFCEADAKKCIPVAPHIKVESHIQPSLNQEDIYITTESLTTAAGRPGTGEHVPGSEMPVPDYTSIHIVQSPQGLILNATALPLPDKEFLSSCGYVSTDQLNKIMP

Chain of growth hormone (P01241 27-217): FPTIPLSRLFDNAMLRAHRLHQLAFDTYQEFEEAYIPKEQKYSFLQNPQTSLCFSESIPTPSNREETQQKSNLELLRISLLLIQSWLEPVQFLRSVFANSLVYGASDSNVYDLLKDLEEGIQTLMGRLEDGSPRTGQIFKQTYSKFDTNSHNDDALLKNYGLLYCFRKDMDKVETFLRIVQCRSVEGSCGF

- Kd: 0.3 nM
Substance: growth hormone (from UniProt P01241)
